25 variants from the supplement of paper PMC7125110 can be followed below.

The labels stand for the following.
B1: glmS ribozyme (parent)
chain: AUAAAAGCGCCAGAACUACAGAAAUGUAGUUGACGAGGAGGAGGUUUAUCGAAUUUUCGGCGGAUGCCUCCAAA

± gives the standard error. Fewer inactive variants are shown than the library holds.

Conditions in all cases: with glucosamine-6-phosphate
The variants in series [1] derive from B1. Briefly: self-cleavage kobs at 40 uM GlcN6P; higher = faster cleavage; RNA array. In a few lines:
(§1)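 Tiles of sequenced MiSeq chips were imaged over ~14 h at 37 °C. On them, barcoded ribozyme variants had been transcribed in situ by E. coli RNA polymerase and were tracked via a hybridised Cy3 probe while glucosamine-6-phosphate (40 μM to 10 mM) in HEPES/KCl/Mg(OAc)2 buffer flowed in. Per-tile medians, normalised to baseline and to non-cleaving reference variants, were fit to one- or two-exponential decays for kobs, and weighted Michaelis–Menten fits gave kcat and KM.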

The variants in series [2] derive from B1. Description: self-cleavage kobs at 160 uM GlcN6P; higher = faster cleavage; RNA array. In a few lines: as §1
Series [3] covers variants of B1. Description: self-cleavage kobs at 640 uM GlcN6P; higher = faster cleavage; RNA array. The gist of the method:
as §1

In series [4] the parent is B1. Description: self-cleavage kobs at 10000 uM GlcN6P; higher = faster cleavage; RNA array. The gist of the method: as §1
The variants in series [5] derive from B1. Briefly: self-cleavage kobs at 2500 uM GlcN6P; higher = faster cleavage; RNA array. In a few lines: as §1

Regarding C11U U47A A52C, the “self-cleavage kobs at 40 uM GlcN6P” value with glucosamine-6-phosphate [1] is less than 1e-05 s⁻¹.

Consider A12G G38A G66U, for which the “self-cleavage kobs at 40 uM GlcN6P” value with glucosamine-6-phosphate [1] was less than 1e-05 s⁻¹. Besides, in the series with glucosamine-6-phosphate [2], the “self-cleavage kobs at 160 uM GlcN6P” value is less than 1e-05 s⁻¹. Besides, the “self-cleavage kobs at 640 uM GlcN6P” value in the series with glucosamine-6-phosphate [3] was less than 1e-05 s⁻¹. For the same variant, in the series with glucosamine-6-phosphate [4], the “self-cleavage kobs at 10000 uM GlcN6P” value is less than 1e-05 s⁻¹.

For A42C U55A U57C, the “self-cleavage kobs at 40 uM GlcN6P” value in the series with glucosamine-6-phosphate [1] is less than 1e-05 s⁻¹.

G41C G44U: the “self-cleavage kobs at 40 uM GlcN6P” value with glucosamine-6-phosphate [1] is less than 1e-05 s⁻¹. Also, the “self-cleavage kobs at 160 uM GlcN6P” value with glucosamine-6-phosphate [2] was less than 1e-05 s⁻¹. In addition, the “self-cleavage kobs at 640 uM GlcN6P” value in the series with glucosamine-6-phosphate [3] is less than 1e-05 s⁻¹. Besides, the “self-cleavage kobs at 2500 uM GlcN6P” value with glucosamine-6-phosphate [5] was less than 1e-05 s⁻¹. The “self-cleavage kobs at 10000 uM GlcN6P” value with glucosamine-6-phosphate [4] is less than 1e-05 s⁻¹.

As to A36C G41A C68A, the “self-cleavage kobs at 40 uM GlcN6P” value with glucosamine-6-phosphate [1] was less than 1e-05 s⁻¹. The “self-cleavage kobs at 640 uM GlcN6P” value with glucosamine-6-phosphate [3] was less than 1e-05 s⁻¹. The “self-cleavage kobs at 2500 uM GlcN6P” value in the series with glucosamine-6-phosphate [5] is less than 1e-05 s⁻¹. In addition, the “self-cleavage kobs at 10000 uM GlcN6P” value with glucosamine-6-phosphate [4] was less than 1e-05 s⁻¹.

In the case of A33U A48G A52U, in the series with glucosamine-6-phosphate [1], the “self-cleavage kobs at 40 uM GlcN6P” value was less than 1e-05 s⁻¹.

Consider A15U G59C A64C, for which the “self-cleavage kobs at 40 uM GlcN6P” value in the series with glucosamine-6-phosphate [1] is less than 1e-05 s⁻¹.

With A6C G43U C67A, the “self-cleavage kobs at 40 uM GlcN6P” value with glucosamine-6-phosphate [1] was less than 1e-05 s⁻¹.

As to G35C G38U C50G C68A C70A, in the series with glucosamine-6-phosphate [1], the “self-cleavage kobs at 40 uM GlcN6P” value amounted to 0.000136 ± 3.2e-05 s⁻¹. The “self-cleavage kobs at 10000 uM GlcN6P” value in the series with glucosamine-6-phosphate [4] came to 0.000258 ± 3.9e-05 s⁻¹.

G43U C71G: in the series with glucosamine-6-phosphate [1], the “self-cleavage kobs at 40 uM GlcN6P” value is less than 1e-05 s⁻¹. In the series with glucosamine-6-phosphate [2], the “self-cleavage kobs at 160 uM GlcN6P” value is less than 1e-05 s⁻¹. The “self-cleavage kobs at 640 uM GlcN6P” value with glucosamine-6-phosphate [3] is less than 1e-05 s⁻¹. For the same variant, in the series with glucosamine-6-phosphate [4], the “self-cleavage kobs at 10000 uM GlcN6P” value is less than 1e-05 s⁻¹.

On to C11U U49G C58U G60C, for which the “self-cleavage kobs at 40 uM GlcN6P” value with glucosamine-6-phosphate [1] was less than 1e-05 s⁻¹. Moreover, in the series with glucosamine-6-phosphate [5], the “self-cleavage kobs at 2500 uM GlcN6P” value is less than 1e-05 s⁻¹.

With A15U G29U G60C, the “self-cleavage kobs at 40 uM GlcN6P” value with glucosamine-6-phosphate [1] is less than 1e-05 s⁻¹.

Regarding A6U A39C, the “self-cleavage kobs at 40 uM GlcN6P” value in the series with glucosamine-6-phosphate [1] is less than 1e-05 s⁻¹.

For A42U U49G U57A C61G, the “self-cleavage kobs at 40 uM GlcN6P” value in the series with glucosamine-6-phosphate [1] is less than 1e-05 s⁻¹. Also, the “self-cleavage kobs at 640 uM GlcN6P” value in the series with glucosamine-6-phosphate [3] was less than 1e-05 s⁻¹. In the series with glucosamine-6-phosphate [5], the “self-cleavage kobs at 2500 uM GlcN6P” value was less than 1e-05 s⁻¹. Also, the “self-cleavage kobs at 10000 uM GlcN6P” value with glucosamine-6-phosphate [4] is less than 1e-05 s⁻¹.

For the variant A12U C50G G59U U69C, the “self-cleavage kobs at 40 uM GlcN6P” value in the series with glucosamine-6-phosphate [1] stood at 0.000143 ± 4.1e-05 s⁻¹. The “self-cleavage kobs at 2500 uM GlcN6P” value in the series with glucosamine-6-phosphate [5] turned out to be 8.19e-05 ± 3e-05 s⁻¹. In the series with glucosamine-6-phosphate [4], the “self-cleavage kobs at 10000 uM GlcN6P” value amounted to 0.000187 ± 4.7e-05 s⁻¹.

Turning to C8G U46G, in the series with glucosamine-6-phosphate [1], the “self-cleavage kobs at 40 uM GlcN6P” value was less than 1e-05 s⁻¹. Further, the “self-cleavage kobs at 160 uM GlcN6P” value with glucosamine-6-phosphate [2] is less than 1e-05 s⁻¹. In addition, the “self-cleavage kobs at 640 uM GlcN6P” value with glucosamine-6-phosphate [3] is less than 1e-05 s⁻¹. For the same variant, the “self-cleavage kobs at 2500 uM GlcN6P” value in the series with glucosamine-6-phosphate [5] is less than 1e-05 s⁻¹. For the same variant, the “self-cleavage kobs at 10000 uM GlcN6P” value in the series with glucosamine-6-phosphate [4] is less than 1e-05 s⁻¹.

Consider G63A, for which, in the series with glucosamine-6-phosphate [1], the “self-cleavage kobs at 40 uM GlcN6P” value was less than 1e-05 s⁻¹. The “self-cleavage kobs at 640 uM GlcN6P” value with glucosamine-6-phosphate [3] was less than 1e-05 s⁻¹. In the series with glucosamine-6-phosphate [4], the “self-cleavage kobs at 10000 uM GlcN6P” value is less than 1e-05 s⁻¹.

Regarding A15U A52C G59A C70A, the “self-cleavage kobs at 40 uM GlcN6P” value in the series with glucosamine-6-phosphate [1] is less than 1e-05 s⁻¹.

Regarding G40A G60A U69A, in the series with glucosamine-6-phosphate [1], the “self-cleavage kobs at 40 uM GlcN6P” value was less than 1e-05 s⁻¹.

In the case of G37A C68A, the “self-cleavage kobs at 40 uM GlcN6P” value in the series with glucosamine-6-phosphate [1] is less than 1e-05 s⁻¹. Also, the “self-cleavage kobs at 160 uM GlcN6P” value in the series with glucosamine-6-phosphate [2] was less than 1e-05 s⁻¹. Moreover, the “self-cleavage kobs at 640 uM GlcN6P” value with glucosamine-6-phosphate [3] was less than 1e-05 s⁻¹. Moreover, the “self-cleavage kobs at 2500 uM GlcN6P” value with glucosamine-6-phosphate [5] was less than 1e-05 s⁻¹. Besides, the “self-cleavage kobs at 10000 uM GlcN6P” value with glucosamine-6-phosphate [4] is less than 1e-05 s⁻¹.

In the case of G43C U69C, in the series with glucosamine-6-phosphate [1], the “self-cleavage kobs at 40 uM GlcN6P” value was less than 1e-05 s⁻¹. The “self-cleavage kobs at 160 uM GlcN6P” value in the series with glucosamine-6-phosphate [2] is less than 1e-05 s⁻¹.

C8A G62C: in the series with glucosamine-6-phosphate [1], the “self-cleavage kobs at 40 uM GlcN6P” value is less than 1e-05 s⁻¹. Besides, the “self-cleavage kobs at 640 uM GlcN6P” value in the series with glucosamine-6-phosphate [3] is less than 1e-05 s⁻¹. Moreover, the “self-cleavage kobs at 2500 uM GlcN6P” value in the series with glucosamine-6-phosphate [5] was less than 1e-05 s⁻¹. In addition, the “self-cleavage kobs at 10000 uM GlcN6P” value in the series with glucosamine-6-phosphate [4] was less than 1e-05 s⁻¹.

In the case of C50G U56G C61A, in the series with glucosamine-6-phosphate [1], the “self-cleavage kobs at 40 uM GlcN6P” value is 8.29e-05 ± 2e-05 s⁻¹. Also, in the series with glucosamine-6-phosphate [3], the “self-cleavage kobs at 640 uM GlcN6P” value is 0.000426 ± 0.00014 s⁻¹. Also, in the series with glucosamine-6-phosphate [5], the “self-cleavage kobs at 2500 uM GlcN6P” value was found to be 0.00021 ± 4.8e-05 s⁻¹. Moreover, the “self-cleavage kobs at 10000 uM GlcN6P” value with glucosamine-6-phosphate [4] was 6.89e-05 ± 1.6e-05 s⁻¹.

For A12G G32C G37U C71G, the “self-cleavage kobs at 40 uM GlcN6P” value with glucosamine-6-phosphate [1] was less than 1e-05 s⁻¹.

With G35A C71U, the “self-cleavage kobs at 40 uM GlcN6P” value in the series with glucosamine-6-phosphate [1] is less than 1e-05 s⁻¹. Moreover, the “self-cleavage kobs at 160 uM GlcN6P” value with glucosamine-6-phosphate [2] was less than 1e-05 s⁻¹. Further, the “self-cleavage kobs at 640 uM GlcN6P” value in the series with glucosamine-6-phosphate [3] was less than 1e-05 s⁻¹. In addition, the “self-cleavage kobs at 2500 uM GlcN6P” value with glucosamine-6-phosphate [5] is less than 1e-05 s⁻¹. Moreover, the “self-cleavage kobs at 10000 uM GlcN6P” value with glucosamine-6-phosphate [4] is less than 1e-05 s⁻¹.
